Literature values, collected in paper PMC3405059.

Target: MSPβ beta chain (Homo sapiens) (UniProt P26927)
Experiment: SPR

Chain of UniProt P26927 (P26927 484-711): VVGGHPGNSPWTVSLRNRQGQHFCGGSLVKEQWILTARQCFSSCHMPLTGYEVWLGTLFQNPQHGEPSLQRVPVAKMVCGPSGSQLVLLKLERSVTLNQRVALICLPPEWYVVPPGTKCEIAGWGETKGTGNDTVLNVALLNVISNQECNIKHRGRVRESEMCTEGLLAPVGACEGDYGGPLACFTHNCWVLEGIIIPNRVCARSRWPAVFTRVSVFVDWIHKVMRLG

Kd: 13 nM
Substance: RON ECD (from UniProt Q04912)
